Measured values published in patent US20020155542A1, “Inhibitors for suppressing the activity of proteins displaying CIITA activity, methods for their identification and pharmaceutical compositions” (priority 1994, published 2002).

Key:
[1] = system: human T cell clones T-50 and T-87; assay: Peptide-specific T cell activation with melanoma cells as antigen-presenting cells, H3-thymidine incorporation; format: cell-based; conditions: melanoma cells as APC, tetanus toxoid peptide p4; CIITA transfected vs 48 hours interferon gamma
Method: FIG. 9. Activation of human T cell clones with transfectants and interferon-stimulated cells used as APC's. Three types of cells were tested as APC'S: Untransfected melanoma cell line, MHC class II negative (o); The same cell line following 48 hours of exposure to […] of interferon gamma, MHC class II positive (black square ); The same cell line previously transfected with CIITA cDNA, MHC class it positive (black triangle). These cells were treated with various concentrations of p4, a tetanus toxoid peptide, at the concentrations indicated, fixed by UV light and incubated with two different human T cell clones specific for that peptide, T-50 and T-87. The extent of T cell activation was measured by incorporation of […] in a standard assay, and expressed as “stimulation index”.
Cells where the expression of MHC class II molecules had been induced by the transactivator gene CIITA (as CIITA cDNA) were tested for their ability to bind exogenously provided peptides and to present such peptides to T cell clones. These CIITA transfectants were compared with the same cells where MHC class II expression had been induced by interferon gamma. […] Peptide-specific T cell activation by these two types of MHC class II positive cells was measured by H3-thymidine incorporation, expressed as a stimulation index. […]

[2] = system: MHC class II positive cells; assay: Peptide binding ability of MHC class II positive melanoma cells; format: cell-based, human; conditions: CIITA transfectants vs interferon activated
Method: Cells where the expression of MHC class II molecules had been induced by the transactivator gene CIITA (as CIITA cDNA) were tested for their ability to bind exogenously provided peptides and to present such peptides to T cell clones. These CIITA transfectants were compared with the same cells where MHC class II expression had been induced by interferon gamma. The two types of cells expressed MHC class II molecules at the surface at a similar level. […] Peptide-specific T cell activation by these two types of MHC class II positive cells was measured by H3-thymidine incorporation, expressed as a stimulation index. In this particular experiment, melanoma cells were used as antigen-presenting cells.
In agreement with these functional results, the peptide binding ability of these two types of MHC class II positive cells was drastically different, being low in the interferon activated cells and high in the CIITA transfectants. Thus, CIITA induces the expression of MHC class II molecules that are unusual in their highly efficient capacity to bind and to present peptides to T lymphocytes, leading to activation of these lymphocytes.

B1: interferon gamma (protein, UniProt P01579 24-161, looked up)
Interferon gamma: QDPYVKEAENLKKYFNAGHSDVADNGTLFLGILKNWKEESDRKIMQSQIVSFYFKLFKNFKDDQSIQKSVETIKEDMNVKFFNSNKKKRDDFEKLTNYSVTDLNVQRKAIHELIQVMAELSPAAKTGKRKRSQMLFRG
notes: lymphokine used to induce MHC class II expression in melanoma cells, comparator to CIITA transfection
[1]
  peptide-specific T cell activation (stimulation index): failed to induce significant T cell activation
[2]
  peptide binding ability: low
